From PMC9254573 (Biochemistry, 2022)
Ends that are not written are not given here.

Columns and labels:
CCR7 (Homo sapiens) [1] = experiment: nanoDSF; settings: cited from earlier work
[2] = molecular target: CCR7 N-terminus (Homo sapiens) (UniProt P32248); experiment: nanoDSF; settings: cited from earlier work
CCR7 (Homo sapiens) [3] = experiment: nanoDSF; settings: cited from earlier work; remark: listed apart in the source
CCR7 (Homo sapiens) [4] = experiment: NMR; settings: cited from earlier work
[5] = molecular target: T1, Recombinant human [U-15N] CCL19 (human, UniProt Q99731 22-98, uniformly 15N-labelled ([U-15N])); experiment: NMR titration
T1 sequence (looked up): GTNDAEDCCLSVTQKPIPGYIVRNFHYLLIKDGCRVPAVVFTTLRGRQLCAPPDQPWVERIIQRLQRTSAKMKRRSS

Sequence of CCL21 (O00585 24-134): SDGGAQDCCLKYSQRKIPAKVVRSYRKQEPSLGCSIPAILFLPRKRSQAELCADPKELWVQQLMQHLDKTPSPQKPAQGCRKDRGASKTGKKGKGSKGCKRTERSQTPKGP
Sequence of CCR7 N-terminus (Homo sapiens) (P32248 25-59): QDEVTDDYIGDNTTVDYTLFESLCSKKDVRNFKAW

**Q.** Which Kd (CCR7 (Homo sapiens) [1]) does the source give for CCL19 (from UniProt Q99731) here?
**A.** 300 nM

**Q.** And the Kd [2]?
**A.** > 1000 nM

**Q.** And the Kd (CCR7 (Homo sapiens) [3])?
**A.** 800 nM

**Q.** For CCL21 (from UniProt O00585), which Kd (CCR7 (Homo sapiens) [4]) is on record?
**A.** 700 µM

**Q.** Which Kd [5] does the source give for TDDYIGD-NH2 [CCR7 5-11 peptide (TDDYIGD-NH2)] here?
**A.** 200 ± 100 µM
